Measurements: patent publication US20130115166A1 (CEPHALON AUSTRALIA, published 2013)
Numbering of substitutions follows the chain as printed.

How the values were obtained:
[1] = molecular target: T1, FLAG-tagged IL-12p40 (human, UniProt P29460 23-328); test: ELISA, hybridoma supernatant on antigen captured by anti-FLAG M2
T1 sequence: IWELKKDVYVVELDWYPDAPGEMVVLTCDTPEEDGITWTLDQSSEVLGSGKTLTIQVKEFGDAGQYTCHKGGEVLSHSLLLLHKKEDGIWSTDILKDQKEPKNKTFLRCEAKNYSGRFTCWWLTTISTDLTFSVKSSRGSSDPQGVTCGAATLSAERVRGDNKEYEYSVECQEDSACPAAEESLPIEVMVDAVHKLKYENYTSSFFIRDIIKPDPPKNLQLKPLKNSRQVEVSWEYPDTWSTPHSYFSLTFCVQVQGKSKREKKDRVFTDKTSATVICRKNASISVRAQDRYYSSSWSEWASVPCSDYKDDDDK
Protocol: (§1) Anti-FLAG M2 antibody (Sigma-Aldrich) was coated onto ELISA plates overnight. These plates were then used to capture individually: FLAG-tagged IL-23p19, FLAG-tagged IL-12p40 and FLAG-tagged IL-23. Hybridoma supernatant from the clones was added and hybridomas that were positive for binding to IL-23 but not IL-12p40 or IL-23p19 were expanded.

[2] = molecular target: T2, FLAG-tagged IL-23p19 (human, UniProt Q9NPF7 20-189); test: as above
T2 sequence: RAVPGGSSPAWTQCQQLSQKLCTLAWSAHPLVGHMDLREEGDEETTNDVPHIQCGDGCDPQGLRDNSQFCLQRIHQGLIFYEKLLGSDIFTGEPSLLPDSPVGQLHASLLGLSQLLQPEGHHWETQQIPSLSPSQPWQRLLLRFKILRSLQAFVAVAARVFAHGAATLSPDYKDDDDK
Protocol: as §1

[3] = molecular target: T3, IL-23 (HEK293E-derived) (human, UniProt P29460 23-328; Q9NPF7 20-189); test: SPR (Biacore), antibody supernatant captured on Protein A, IL-23 at 5 ug/ml as analyte
T3 sequence 1: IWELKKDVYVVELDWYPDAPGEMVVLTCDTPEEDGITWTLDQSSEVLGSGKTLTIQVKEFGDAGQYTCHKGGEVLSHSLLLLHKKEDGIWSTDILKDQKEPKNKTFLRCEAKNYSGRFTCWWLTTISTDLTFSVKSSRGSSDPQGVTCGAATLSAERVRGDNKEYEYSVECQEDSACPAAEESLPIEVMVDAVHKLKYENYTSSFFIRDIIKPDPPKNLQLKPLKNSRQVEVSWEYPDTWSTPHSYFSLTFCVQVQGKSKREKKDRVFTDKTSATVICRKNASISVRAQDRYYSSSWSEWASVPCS
T3 sequence 2: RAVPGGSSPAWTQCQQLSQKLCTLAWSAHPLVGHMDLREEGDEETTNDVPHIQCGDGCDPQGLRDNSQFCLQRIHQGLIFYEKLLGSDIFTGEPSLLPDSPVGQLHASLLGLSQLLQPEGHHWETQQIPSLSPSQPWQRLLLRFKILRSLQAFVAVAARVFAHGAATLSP
Protocol: As a result of the humanization processes 22 humanized antibodies were produced and tested for their ability to bind human IL-23 (Table 4). Briefly, 2 mL transfections of the 22 humanized antibodies were screened for antibody expression level and binding activity via SPR. Protein A was immobilized onto FC1 and FC2 (or alternatively FC3 and FC4) of a CM5 research grade sensor chip using amine coupling, giving approximately 3000 RU. FC1 was used as a blank throughout the experiments. The experiments were run in HBS-P buffer (SPR). Antibody-containing cell culture supernatants were diluted in 10× HBS-P buffer at a ratio of 9:1. The diluted antibody was injected over FC2 at a flow rate of 20 μl/min. IL-23 (HEK293E-derived) was passed over the surface of FC1 and FC2 at a concentrations of 5 μg/ml as a kinetic injection with 5 min dissociation time across both
FC. Regeneration of the surface was performed using 10 mM Glycine, pH 1.5. The sensorgram data from FC2 were subtracted from FC1 and a buffer only control. […] The Sequence IDs of the variable heavy and light chains for each antibody are given in the Table 4 along with kd (off-rates) of selected tested antibodies.

[4] = molecular target: T4, Human IL-23 (human, UniProt P29460 23-328; Q9NPF7 20-189); test: SPR (Biacore 3000), antibody captured on Protein A, IL-23 as analyte, 1:1 Langmuir fit
T4 construct: Heterodimer of IL-12p40 covalently linked to IL-23p19, purchased (Ebiosciences or RnD Systems); also called hIL-23; rhIL23
T4 sequence 1: T3 sequence 1
T4 sequence 2: T3 sequence 2
Protocol: Using a Biacore 3000, Protein A (Pierce) was immobilized on a CM5 chip using amine coupling chemistry to give 3000 Response Units (RU). Antibody was captured on the surface of the chip in flow cell 2 or 4 with a control surface in flow cell 1 or 3. Human IL-23 was then passed over both flow cells and the response units measured. The surface was then regenerated with 10 mM glycine pH 2.5. For a kinetic run this process was repeated with 5 dilutions of IL-23. Data was double referenced using an injection of running buffer before being fitted using a 1:1 Langmuir equation to determine ka, kd and KD.

[5] = molecular target: T5, IL-12p40 (human, UniProt P29460 23-328); test: ELISA, coated antigen IL-12p40, mOD at 450 nm; blank = coating antigen omitted [panel 8-22]
T5 construct: also called IL-12p40 subunit
T5 sequence: T3 sequence 1

[6] = molecular target: T6, IL-23p19 (human, UniProt Q9NPF7 20-189); test: ELISA, coated antigen IL-23p19, mOD at 450 nm; blank = coating antigen omitted [panel 8-22]
T6 construct: also called IL-23p19 subunit
T6 sequence: T3 sequence 2

[7] = molecular target: T5, IL-12p40; test: ELISA, coated antigen IL-12p40, mOD at 450 nm; blank = coating antigen omitted [panel 20-4]
[8] = molecular target: T6, IL-23p19; test: ELISA, coated antigen IL-23p19, mOD at 450 nm; blank = coating antigen omitted [panel 20-4]
[9] = molecular target: T5, IL-12p40; test: ELISA, coated antigen IL-12p40, mOD at 450 nm; blank = coating antigen omitted [panel 6-22]
[10] = molecular target: T6, IL-23p19; test: ELISA, coated antigen IL-23p19, mOD at 450 nm; blank = coating antigen omitted [panel 6-22]

B1: E11E7 (antibody, V domains shown)
VH: QVQLKESGPGLVQPSQTLSLTCTVSGFSLISYNVHWVRQPRGKGLEWMGVIWTGGSTDYNSVLKSRLSISRDTSKSQVFLKMHSLQTEDIGTYYCARDKYGLFPGYFDYWGQGVMVTVSS
VL: DIVMTQSPFSLAVSEGEMVTINCKPSQSLLSSGNRKNYLAWYQQKPGQSPKLLIYYASTRQSGVPDRFIGSGSGTDFTLTISDVQAEDLADYYCLQHFNYPWTFGGGTKLELKR
notes: Rat monoclonal antibody from a hybridoma; also called rat antibody E11E7
binding result [1]: no binding
binding result [2]: no binding

B2: 8-22 (antibody, human IgG1, kappa, V domains shown)
VH: QVQLQESGPGLVKPSETLSLTCTVSGFSLISYNVHWIRQPPGKGLEWIGVIWTGGSTDYNPSLKSRVTISRDTSKNQFSLKLSSVTAADTAVYYCARDKYGLFPGYFDYWGQGTLVTVSS
VL: DIVMTQSPDSLAVSLGERATINCKPSQSLLSSGNRKNYLAWYQQKPGQPPKLLIYYASTRQSGVPDRFSGSGSGTDFTLTISSLQAEDVAVYYCLQHFNYPWTFGQGTKLEIKR
notes: Humanized form of E11E7; also called humanized antibody 8-22
koff [3]: 0.000117 s⁻¹
Kd [4]: 0.421 nM
koff [4]: 0.000197 s⁻¹
kon [4]: 468000 M⁻¹ s⁻¹
binding result [5]: no binding (tested: 10 ug/mL)
binding result [6]: no binding (tested: 10 ug/mL)

B3: 20-4 (antibody, human IgG1, kappa, V domains shown)
VH: B2 VH with Q1E, E6Q, S7W, P9A, V12L, T23A, S25Y, P61S, S62V, R71V
VL: EIVLTQSPATLSLSPGERATLSCKPSQSLLSSGNRKNYLAWYQQKPGQAPRLLIYYASTRQSGIPDRFSGSGSGTDFTLTISRLEPEDFAVYYCLQHFNYPWTFGGGTKVEIKR
notes: Humanized form of E11E7; also called humanized antibody 20-4
koff [3]: 0.000231 s⁻¹
Kd [4]: 0.47 nM
koff [4]: 0.000202 s⁻¹
kon [4]: 429000 M⁻¹ s⁻¹
binding result [7]: no binding (tested: 10 ug/mL)
binding result [8]: no binding (tested: 10 ug/mL)

B4: 6-22 (antibody, human IgG1, kappa, V domains shown)
VH: B2 VH with L29I, I30S
VL: B2 VL
notes: Humanized form of E11E7; also called humanized antibody 6-22
koff [3]: 0.000241 s⁻¹
Kd [4]: 0.86 nM
koff [4]: 0.0004 s⁻¹
kon [4]: 465000 M⁻¹ s⁻¹
binding result [9]: no binding (tested: 10 ug/mL)
binding result [10]: no binding (tested: 10 ug/mL)
